{"source": "patent US6087375A", "about": "“Methods of treating or preventing thromboses” (priority 1999, dated 2000)", "molecular_target": "rabbit serum albumin (RSA) (Oryctolagus cuniculus, UniProt P49065)", "sequence (P49065 25-608)": "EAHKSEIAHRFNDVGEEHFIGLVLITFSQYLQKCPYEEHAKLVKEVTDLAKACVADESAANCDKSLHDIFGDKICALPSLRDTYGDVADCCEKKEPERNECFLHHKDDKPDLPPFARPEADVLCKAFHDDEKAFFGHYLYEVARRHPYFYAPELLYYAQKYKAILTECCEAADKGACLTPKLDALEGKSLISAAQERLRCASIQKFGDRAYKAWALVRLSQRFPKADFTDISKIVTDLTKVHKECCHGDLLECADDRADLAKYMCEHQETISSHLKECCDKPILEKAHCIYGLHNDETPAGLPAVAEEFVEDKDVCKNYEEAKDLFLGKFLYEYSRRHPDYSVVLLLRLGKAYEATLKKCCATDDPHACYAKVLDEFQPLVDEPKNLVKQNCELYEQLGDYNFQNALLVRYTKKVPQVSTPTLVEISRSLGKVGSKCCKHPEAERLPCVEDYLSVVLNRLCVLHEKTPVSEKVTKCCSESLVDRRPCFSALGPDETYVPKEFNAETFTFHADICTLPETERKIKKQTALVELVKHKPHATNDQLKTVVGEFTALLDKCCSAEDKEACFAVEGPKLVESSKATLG", "test": "Mass spectrometric analysis of conjugation to RSA (HPLC/ESIMS, MALDI-TOFMS)", "type": "binding", "conditions": "LC/MS; 15 μM RSA, 200 μM argatroban-C6 NHS ester, 1 hour (Example 8)", "experimental": "All samples were analyzed using a high performance liquid chromatograph (HPLC) coupled in-line to an electrospray ionization (ESI) mass spectrometer (MS) which is termed HPLC/ESIMS. Some samples were also analyzed using a matrix-assisted laser desorption ionization (MALDI) time-of-flight (TOF) mass spectrometer which is termed (MALDI-TOFMS).\nSamples for HPLC/ESIMS were either prepared as duplicate reaction samples or were part of the same reaction samples which were used in the ELISA assays described below. These samples were injected directly only the HPLC/ESIMS without any manipulation other than dilution with water, where the PBS, DMSO, and unreacted derivative molecules are separated from the protein-argatroban derivative molecule conjugate. Samples for MALDI-MS were first HPLC-purified and mixed 1:1 directly on the stainless steel analysis plate with a matrix of 10 mg/ml sinnapinic acid in 50% acetonitrile/50% water. The mixture was then dried with a gentle flow of air to allow for crystallization and inserted into the instrument for laser ionization.\nThe HPLC is a Hewlett Packard 1090 Series II liquid chromatogram with a diode array detector. The column used for separation is a Brownlee aquapore OD-300 reversed phase C18 column, 1 mm×10 cm, 300 Å pore size, 7 μm particle diameter. The mass spectrometer to which the HPLC is connected using fused Silica capillary tubing is a Sciex API-300 triple quadrupole mass spectrometer with an ionspray source to allow for atmospheric pressure ionization of a liquid flowing continuously into the instrument. The MALDI-TOFMS is a Perceptive Biosystems Voyager Elite DE instrument run in the linear mode.\nThe conjugate was prepared according to the following protocol. […] Sham samples consist of the RSA incubated for the same length of time at RT in 2% DMSO in PBS. Each of the samples was then concentrated to a final volume of 1.5 mL using Amicon Centricon 30 filtration/concentration devices. The concentrated samples were then desalted on Pierce's 5 ML Kwiksep excellulose plastic desalting columns. The excluded volumes containing RSA or argatroban-C6-RSA were then subjected to BCA microprotein estimation and lyophilization. In addition, these samples were analyzed by LC/MS, sandwich ELISA assays (described above) to measure thrombin binding and immunoblotting.", "data": [{"substance": "RSA-argatroban-C6 conjugate: rabbit serum albumin covalently bound by argatroban-C6 NHS ester molecules", "values": [{"measurement": "average of tethered argatroban molecules conjugated to each RSA molecule", "result": "10 tethered argatroban molecules"}]}]}
